Reference: US9290745B2, “Luciferase biosensor” (PROMEGA CORPORATION, priority 2003, dated 2016)
“Also recorded” adds a separate entry of the source. Each block holds one molecule with its values, some of them ahead of it.

Assays:
caspase-3 [1] = target: T1, caspase-3 (Homo sapiens, UniProt P42574); format: biochemical
T1 construct: purchased BioMol
T1 sequence (P42574 29-175 limits assumed): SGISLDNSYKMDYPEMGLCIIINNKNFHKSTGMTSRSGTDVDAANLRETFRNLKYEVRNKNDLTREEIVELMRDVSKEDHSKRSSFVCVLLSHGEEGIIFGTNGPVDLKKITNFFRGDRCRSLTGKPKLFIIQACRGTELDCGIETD
T1 sequence (P42574 176-277 limits assumed): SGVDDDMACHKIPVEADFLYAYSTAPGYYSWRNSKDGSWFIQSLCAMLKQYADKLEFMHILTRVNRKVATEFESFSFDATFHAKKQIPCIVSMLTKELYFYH

[2] = target: cyclic AMP dependent protein kinase catalytic subunit (Homo sapiens, UniProt P17612); conditions: cited from earlier work
[3] = target: cyclic AMP-dependent protein kinase (Homo sapiens, UniProt P17612); conditions: cited from earlier work
caspase-3 [4] = target: T1, caspase-3; assay: Caspase-3 activation of circularly permuted firefly luciferase having a caspase-3 site; format: biochemical; conditions: TnT rabbit reticulocyte lysate
enterokinase = target: T2, enterokinase (Bos taurus, UniProt P98072); assay: Enterokinase assay with firefly luciferases having an internal enterokinase site; format: biochemical
T2 construct: purchased Invitrogen
T2 sequence (P98072 801-1035 limits assumed): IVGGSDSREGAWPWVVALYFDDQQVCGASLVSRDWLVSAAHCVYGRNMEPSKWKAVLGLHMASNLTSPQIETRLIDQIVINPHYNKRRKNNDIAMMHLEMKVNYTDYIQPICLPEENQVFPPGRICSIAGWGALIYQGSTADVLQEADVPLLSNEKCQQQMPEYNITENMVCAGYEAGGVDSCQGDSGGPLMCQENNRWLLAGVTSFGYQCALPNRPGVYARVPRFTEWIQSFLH

Molecule: Ac-DEVD-CHO
- caspase-3 induced decrease of Cbg69DEVD luciferase activity in presence of caspase inhibitor (caspase-3 [1]): decrease in activity was not observed

Molecule: LRRASLG
- reduction of activity on addition of kinase catalytic subunit [2]: 30%

Molecule: RRFS: Photinus pyralis luciferase, valine 217 mutated to arginine generating site RRFS (Sala-Newby et al.)
- decrease of activity when phosphorylated [3]: up to 80%

- effect of caspase-3 on activity (caspase-3 [4]): not affected
- luminescence reading (Turner 20/20 luminometer) (enterokinase; 0 minutes, with 1 U EKMax): 2561
- luminescence reading (Turner 20/20 luminometer) (enterokinase; 0 minutes, without EKMax): 2517
- luminescence reading (Turner 20/20 luminometer) (enterokinase; 15 minutes, with 1 U EKMax): 2905
- luminescence reading (Turner 20/20 luminometer) (enterokinase; 15 minutes, without EKMax): 2855
- luminescence reading (Turner 20/20 luminometer) (enterokinase; 30 minutes, with 1 U EKMax): 3190
- luminescence reading (Turner 20/20 luminometer) (enterokinase; 30 minutes, without EKMax): 2987
B1: WT enzyme: parental (unmodified) firefly luciferase luc+ (protein)
chain: MEDAKNIKKGPAPFYPLEDGTAGEQLHKAMKRYALVPGTIAFTDAHIEVDITYAEYFEMSVRLAEAMKRYGLNTNHRIVVCSENSLQFFMPVLGALFIGVAVAPANDIYNERELLNSMGISQPTVVFVSKKGLQKILNVQKKLPIIQKIIIMDSKTDYQGFQSMYTFVTSHLPPGFNEYDFVPESFDRDKTIALIMNSSGSTGLPKGVALPHRTACVRFSHARDPIFGNQIIPDTAILSVVPFHHGFGMFTTLGYLICGFRVVLMYRFEEELFLRSLQDYKIQSALLVPTLFSFFAKSTLIDKYDLSNLHEIASGGAPLSKEVGEAVAKRFHLPGIRQGYGLTETTSAILITPEGDDKPGAVGKVVPFFEAKVVDLDTGKTLGVNQRGELCVRGPMIMSGYVNNPEATNALIDKDGWLHSGDIAYWDEDEHFFIVDRLKSLIKYKGYQVAPAELESILLQHPNIFDAGVAGLPDDDAGELPAAVVVLEHGKTMTEKEIVDYVASQVTTAKKLRGGVVFVDEVPKGLTGKLDARKIREILIKAKKGGKIAV
- effect of enterokinase on luciferase activity (enterokinase): no effect; also recorded: not affected; also recorded: not altered
